Results as given in publication PMC10397247.

Key:
[1] = target: T1, 4H968-bN; test: two-hybrid library CCNG1;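 note: natural log of median RNA to DNA barcode read ratio; higher means stronger binding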
T1 chain: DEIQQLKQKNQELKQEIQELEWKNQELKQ

[2] = target: T2, 4H72-bH; test: two-hybrid library CCNG1;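 note: natural log of median RNA to DNA barcode read ratio; higher means stronger binding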
T2 chain: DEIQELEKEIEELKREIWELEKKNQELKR

[3] = target: T3, 4H683-bN; test: two-hybrid library CCNG1;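 note: natural log of median RNA to DNA barcode read ratio; higher means stronger binding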
T3 chain: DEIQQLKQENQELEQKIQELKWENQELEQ

[4] = target: T4, 4H797-bN; test: two-hybrid library CCNG1;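 note: natural log of median RNA to DNA barcode read ratio; higher means stronger binding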
T4 chain: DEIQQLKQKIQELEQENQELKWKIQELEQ

[5] = target: T5, 4H855-bN; test: two-hybrid library CCNG1;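 note: natural log of median RNA to DNA barcode read ratio; higher means stronger binding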
T5 chain: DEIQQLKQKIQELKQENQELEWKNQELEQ

[6] = target: T6, 4H370-bA; test: two-hybrid library CCNG1;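 note: natural log of median RNA to DNA barcode read ratio; higher means stronger binding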
T6 chain: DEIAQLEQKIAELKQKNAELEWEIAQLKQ

[7] = target: T7, 4H575-bN; test: two-hybrid library CCNG1
T7 chain: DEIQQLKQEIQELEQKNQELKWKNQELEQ

[8] = target: T8, 4H4073-bN; test: two-hybrid library CCNG1
T8 chain: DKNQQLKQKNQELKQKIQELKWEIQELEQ

[9] = target: T9, 4H457-bN; test: two-hybrid library CCNG1
T9 chain: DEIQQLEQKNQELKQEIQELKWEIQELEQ

[10] = target: T10, 4H780-bN; test: two-hybrid library CCNG1
T10 chain: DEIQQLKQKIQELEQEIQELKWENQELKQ

[11] = target: T11, 4H953-bN; test: two-hybrid library CCNG1
T11 chain: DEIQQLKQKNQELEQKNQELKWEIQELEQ

[12] = target: T12, 4H3926-bN; test: two-hybrid library CCNG1
T12 chain: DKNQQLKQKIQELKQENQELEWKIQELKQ

[13] = target: T13, 4H754-bN; test: two-hybrid library CCNG1
T13 chain: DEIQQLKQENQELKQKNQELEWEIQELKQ

[14] = target: T14, 4H918-bN; test: two-hybrid library CCNG1
T14 chain: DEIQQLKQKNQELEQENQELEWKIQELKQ

[15] = target: T15, 4H346-bN; test: two-hybrid library CCNG1
T15 chain: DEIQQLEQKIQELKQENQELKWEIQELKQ

[16] = target: T16, 4H94-AA; test: two-hybrid library CCmax; settings: mean of both orientations
T16 chain: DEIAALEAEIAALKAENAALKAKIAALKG

[17] = target: T17, 4H2330-AA; test: two-hybrid library CCmax; settings: mean of both orientations
T17 chain: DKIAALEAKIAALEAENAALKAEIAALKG

[18] = target: T18, 4H710-AA; test: two-hybrid library CCmax; settings: mean of both orientations
T18 chain: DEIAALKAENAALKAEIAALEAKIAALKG

[19] = target: T19, 4H3395-AA; test: two-hybrid library CCmax; settings: mean of both orientations
T19 chain: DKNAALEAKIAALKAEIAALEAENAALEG

[20] = target: T20, 4H485-AA; test: two-hybrid library CCmax; settings: mean of both orientations
T20 chain: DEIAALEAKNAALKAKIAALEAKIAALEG

[21] = target: T21, 4H458-AA; test: two-hybrid library CCmax; settings: mean of both orientations
T21 chain: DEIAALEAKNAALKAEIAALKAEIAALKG

[22] = target: T22, 4H930-AA; test: two-hybrid library CCmax; settings: mean of both orientations
T22 chain: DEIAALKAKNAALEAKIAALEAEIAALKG

[23] = target: T23, 4H3590-AA; test: two-hybrid library CCmax; settings: mean of both orientations
T23 chain: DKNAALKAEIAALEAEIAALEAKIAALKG

[24] = target: T24, 4H3009-AA; test: two-hybrid library CCmax; settings: mean of both orientations
T24 chain: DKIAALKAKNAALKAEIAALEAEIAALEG

[25] = target: T25, 4H745-AA; test: two-hybrid library CCmax; settings: mean of both orientations
T25 chain: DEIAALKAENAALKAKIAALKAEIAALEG

[26] = target: T26, 4H3381-AA; test: two-hybrid library CCmax; settings: mean of both orientations
T26 chain: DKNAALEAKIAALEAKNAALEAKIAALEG

[27] = target: T27, 4H2649-AA; test: two-hybrid library CCmax; settings: mean of both orientations
T27 chain: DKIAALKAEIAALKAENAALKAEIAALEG

[28] = target: T28, 4H2253-AA; test: two-hybrid library CCmax; settings: mean of both orientations
T28 chain: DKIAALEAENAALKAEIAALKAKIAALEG

[29] = target: T29, 4H2162-AA; test: two-hybrid library CCmax
T29 chain: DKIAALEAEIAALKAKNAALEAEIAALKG

[30] = target: T30, 4H570-AA; test: two-hybrid library CCmax; settings: mean of both orientations
T30 chain: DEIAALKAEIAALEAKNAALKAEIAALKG

[31] = target: T31, 4H2438-AA; test: two-hybrid library CCmax; settings: mean of both orientations
T31 chain: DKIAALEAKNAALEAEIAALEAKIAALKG

[32] = target: T32, 4H909-AA; test: two-hybrid library CCmax; settings: mean of both orientations
T32 chain: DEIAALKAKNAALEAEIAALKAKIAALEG

[33] = target: T33, 4H310-AA; test: two-hybrid library CCmax; settings: mean of both orientations
T33 chain: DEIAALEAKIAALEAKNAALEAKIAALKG

[34] = target: T34, 4H3130-AA; test: two-hybrid library CCmax; settings: mean of both orientations
T34 chain: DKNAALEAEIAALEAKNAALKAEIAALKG

[35] = target: T35, 4H2865-AA; test: two-hybrid library CCmax; settings: mean of both orientations
T35 chain: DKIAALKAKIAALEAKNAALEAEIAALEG

[36] = target: T36, 4H891-AA; test: two-hybrid library CCmax; settings: mean of both orientations
T36 chain: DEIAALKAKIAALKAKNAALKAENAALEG

[37] = target: T37, 4H3016-AA; test: two-hybrid library CCmax; settings: mean of both orientations
T37 chain: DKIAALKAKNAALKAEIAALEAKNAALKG

[38] = target: T38, 4H3410-AA; test: two-hybrid library CCmax; settings: mean of both orientations
T38 chain: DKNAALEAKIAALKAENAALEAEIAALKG

[39] = target: T39, 4H850-AA; test: two-hybrid library CCmax; settings: mean of both orientations
T39 chain: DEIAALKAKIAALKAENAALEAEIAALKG

[40] = target: T40, 4H2274-AA; test: two-hybrid library CCmax; settings: mean of both orientations
T40 chain: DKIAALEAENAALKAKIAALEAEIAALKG

[41] = target: T41, 4H3120-AA; test: two-hybrid library CCmax; settings: mean of both orientations
T41 chain: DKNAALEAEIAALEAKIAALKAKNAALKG

[42] = target: T42, 4H2725-AA; test: two-hybrid library CCmax; settings: mean of both orientations
T42 chain: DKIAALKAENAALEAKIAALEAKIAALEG

[43] = target: T43, 4H536-AA; test: two-hybrid library CCmax; settings: mean of both orientations
T43 chain: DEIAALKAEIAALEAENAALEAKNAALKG

[44] = target: T44, 4H797-AA; test: two-hybrid library CCmax; settings: mean of both orientations
T44 chain: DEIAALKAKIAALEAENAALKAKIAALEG

[45] = target: T45, 4H3165-AA; test: two-hybrid library CCmax; settings: mean of both orientations
T45 chain: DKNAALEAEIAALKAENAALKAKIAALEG

[46] = target: T46, 4H2698-AA; test: two-hybrid library CCmax; settings: mean of both orientations
T46 chain: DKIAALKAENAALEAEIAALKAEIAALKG

[47] = target: T47, 4H3865-AA; test: two-hybrid library CCmax; settings: mean of both orientations
T47 chain: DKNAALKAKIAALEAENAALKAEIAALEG

[48] = target: T48, 4H2473-AA; test: two-hybrid library CCmax; settings: mean of both orientations
T48 chain: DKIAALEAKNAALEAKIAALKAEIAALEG

[49] = target: T49, 4H3753-AA; test: two-hybrid library CCmax; settings: mean of both orientations
T49 chain: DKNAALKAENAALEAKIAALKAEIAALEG

[50] = target: T50, 4H3697-AA; test: two-hybrid library CCmax; settings: mean of both orientations
T50 chain: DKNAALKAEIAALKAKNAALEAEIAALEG

[51] = target: T51, 4H629-AA; test: two-hybrid library CCmax; settings: mean of both orientations
T51 chain: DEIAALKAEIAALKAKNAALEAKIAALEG

[52] = target: T52, 4H2389-AA; test: two-hybrid library CCmax; settings: mean of both orientations
T52 chain: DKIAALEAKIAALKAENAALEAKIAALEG

[53] = target: T53, 4H568-bA; test: two-hybrid library CCNG1
T53 chain: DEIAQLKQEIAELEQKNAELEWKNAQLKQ

[54] = target: T54, 4H72-bA; test: two-hybrid library CCNG1
T54 chain: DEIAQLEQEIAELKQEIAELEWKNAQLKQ

[55] = target: T55, 4H953-bA; test: two-hybrid library CCNG1
T55 chain: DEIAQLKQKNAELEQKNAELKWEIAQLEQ

[56] = target: T56, 4H687-bA; test: two-hybrid library CCNG1
T56 chain: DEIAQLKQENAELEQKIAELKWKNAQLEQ

[57] = target: T57, 4H4001-bA; test: two-hybrid library CCNG1
T57 chain: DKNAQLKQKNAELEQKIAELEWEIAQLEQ

[58] = target: T58, 4H883-bA; test: two-hybrid library CCNG1
T58 chain: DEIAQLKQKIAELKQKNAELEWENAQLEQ

[59] = target: T59, 4H797-bA; test: two-hybrid library CCNG1
T59 chain: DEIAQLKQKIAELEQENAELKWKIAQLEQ

[60] = target: T60, 4H462-bA; test: two-hybrid library CCNG1
T60 chain: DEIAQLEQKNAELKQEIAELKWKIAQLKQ

[61] = target: T61, 4H607-bA; test: two-hybrid library CCNG1
T61 chain: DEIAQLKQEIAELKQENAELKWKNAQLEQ

[62] = target: T62, 4H3843-bA; test: two-hybrid library CCNG1
T62 chain: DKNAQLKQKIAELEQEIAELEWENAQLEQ

[63] = target: T63, 4H918-bA; test: two-hybrid library CCNG1
T63 chain: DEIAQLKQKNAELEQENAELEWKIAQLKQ

[64] = target: T64, 4H3782-bA; test: two-hybrid library CCNG1
T64 chain: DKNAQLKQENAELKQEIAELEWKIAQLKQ

[65] = target: T65, 4H967-bA; test: two-hybrid library CCNG1
T65 chain: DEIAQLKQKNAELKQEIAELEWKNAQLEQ

## DEIQQLEQKIQELKQENQELKWEIQELKQ [4H346-bN]
[1]
  interaction score: -0.647
[2]
  interaction score: 0.0876
[3]
  interaction score: 0.0158
[4]
  interaction score: -0.125
[5]
  interaction score: -0.517
[6]
  interaction score: 0.693
[7]
  interaction score: -0.652
[8]
  interaction score: -0.58
[9]
  interaction score: -0.931
[10]
  interaction score: 0.0007
[11]
  interaction score: -0.533
[12]
  interaction score: 1.53
[13]
  interaction score: -0.573
[14]
  interaction score: -0.654
[15]
  interaction score: 1.02

## DKIAALEAEIAALKAKNAALEAEIAALKG [4H2162-AA]
[16]
  interaction score: -0.0378
[17]
  interaction score: -1.04
[18]
  interaction score: -1.09
[19]
  interaction score: -0.899
[20]
  interaction score: -1.06
[21]
  interaction score: -0.816
[22]
  interaction score: -1.36
[23]
  interaction score: -0.841
[24]
  interaction score: -1.18
[25]
  interaction score: -0.859
[26]
  interaction score: -1.58
[27]
  interaction score: -0.344
[28]
  interaction score: -1.34
[29]
  interaction score: 1.73
[30]
  interaction score: 0.778
[31]
  interaction score: -0.363
[32]
  interaction score: -1.18
[33]
  interaction score: -0.523
[34]
  interaction score: -0.375
[35]
  interaction score: -0.262
[36]
  interaction score: -1.78
[37]
  interaction score: -2.12
[38]
  interaction score: -0.231
[39]
  interaction score: 0.439
[40]
  interaction score: -0.925
[41]
  interaction score: -1.44
[42]
  interaction score: -1.72
[43]
  interaction score: -1.2
[44]
  interaction score: -1.49
[45]
  interaction score: -0.865
[46]
  interaction score: -1.79
[47]
  interaction score: -1.59
[48]
  interaction score: -1.53
[49]
  interaction score: -1.93
[50]
  interaction score: -0.752
[51]
  interaction score: -1.01
[52]
  interaction score: -0.128

## DEIAQLEQKIAELKQKNAELEWEIAQLKQ [4H370-bA]
[53]
  interaction score: 1.81
[54]
  interaction score: 0.634
[55]
  interaction score: -1.39
[56]
  interaction score: -0.346
[57]
  interaction score: -0.375
[58]
  interaction score: -0.545
[59]
  interaction score: -0.315
[60]
  interaction score: 1.39
[6]
  interaction score: 1.12
[61]
  interaction score: -0.647
[62]
  interaction score: -0.261
[63]
  interaction score: -0.552
[64]
  interaction score: 0.864
[65]
  interaction score: -0.217
